# Assay results from PMC3433420, “Comprehensive Binary Interaction Mapping of SH2 Domains via Fluorescence Polarization Reveals Novel Functional Diversification of ErbB Receptors” (PLoS ONE, 2012).
# Several values for one entry are separate records, joined by “and”; a condition that tells them apart may be missing. Identical values can stand only once. Non-standard residues stand in square brackets, D forms with d. No end group written: not given here. pY = N[C@@H](Cc1ccc(OP(=O)(O)O)cc1)C(=O)O; Rhodamine = not defined here; rhodamine = not defined here
# T1: BLNK SH2 domain (human, UniProt Q8WV28 346-453)
# T1 construct: BLNK, human; source: bacterial expression, purified
# T1 sequence (looked up): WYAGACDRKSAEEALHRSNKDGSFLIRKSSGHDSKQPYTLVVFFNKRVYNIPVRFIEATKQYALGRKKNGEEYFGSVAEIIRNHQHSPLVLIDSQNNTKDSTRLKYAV
# T2: GRAP2 SH2 domain (human, UniProt O75791 58-149)
# T2 construct: GRAP2, human; source: bacterial expression, purified
# T2 sequence (looked up): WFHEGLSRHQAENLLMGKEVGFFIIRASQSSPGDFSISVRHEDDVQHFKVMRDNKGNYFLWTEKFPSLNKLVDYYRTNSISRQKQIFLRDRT
# T3: SHC1 domain construct (human)
# T3 chain: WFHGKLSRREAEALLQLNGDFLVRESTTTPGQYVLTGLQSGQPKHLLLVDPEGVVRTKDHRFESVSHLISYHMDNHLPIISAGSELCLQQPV
# T4: ABL2 SH2 domain (human, UniProt P42684 173-263)
# T4 construct: ABL2, human; source: bacterial expression, purified
# T4 sequence (looked up): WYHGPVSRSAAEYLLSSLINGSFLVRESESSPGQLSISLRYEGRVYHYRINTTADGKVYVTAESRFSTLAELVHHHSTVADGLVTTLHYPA
# T5: ITK SH2 domain (human, UniProt Q08881 239-338)
# T5 construct: ITK, human; source: bacterial expression, purified
# T5 sequence (looked up): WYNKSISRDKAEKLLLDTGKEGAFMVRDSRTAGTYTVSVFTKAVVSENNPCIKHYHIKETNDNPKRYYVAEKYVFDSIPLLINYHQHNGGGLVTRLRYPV
# T6: SHF SH2 domain (human, UniProt Q7M4L6 323-418)
# T6 construct: SHF, human; source: bacterial expression, purified
# T6 sequence (looked up): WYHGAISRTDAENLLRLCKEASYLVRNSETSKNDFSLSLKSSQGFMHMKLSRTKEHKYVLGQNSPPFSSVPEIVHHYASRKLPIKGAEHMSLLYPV
# T7: STAP1 SH2 domain (human, UniProt Q9ULZ2 177-280)
# T7 construct: STAP1, human; source: bacterial expression, purified
# T7 sequence (looked up): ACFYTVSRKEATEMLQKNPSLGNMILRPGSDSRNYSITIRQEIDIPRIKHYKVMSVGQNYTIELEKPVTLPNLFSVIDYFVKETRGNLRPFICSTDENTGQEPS
# T8: PLCG1 C-terminal SH2 domain (human)
# T8 construct: PLCG1, human; source: bacterial expression, purified
# T8 sequence (P19174 whole entry, looked up): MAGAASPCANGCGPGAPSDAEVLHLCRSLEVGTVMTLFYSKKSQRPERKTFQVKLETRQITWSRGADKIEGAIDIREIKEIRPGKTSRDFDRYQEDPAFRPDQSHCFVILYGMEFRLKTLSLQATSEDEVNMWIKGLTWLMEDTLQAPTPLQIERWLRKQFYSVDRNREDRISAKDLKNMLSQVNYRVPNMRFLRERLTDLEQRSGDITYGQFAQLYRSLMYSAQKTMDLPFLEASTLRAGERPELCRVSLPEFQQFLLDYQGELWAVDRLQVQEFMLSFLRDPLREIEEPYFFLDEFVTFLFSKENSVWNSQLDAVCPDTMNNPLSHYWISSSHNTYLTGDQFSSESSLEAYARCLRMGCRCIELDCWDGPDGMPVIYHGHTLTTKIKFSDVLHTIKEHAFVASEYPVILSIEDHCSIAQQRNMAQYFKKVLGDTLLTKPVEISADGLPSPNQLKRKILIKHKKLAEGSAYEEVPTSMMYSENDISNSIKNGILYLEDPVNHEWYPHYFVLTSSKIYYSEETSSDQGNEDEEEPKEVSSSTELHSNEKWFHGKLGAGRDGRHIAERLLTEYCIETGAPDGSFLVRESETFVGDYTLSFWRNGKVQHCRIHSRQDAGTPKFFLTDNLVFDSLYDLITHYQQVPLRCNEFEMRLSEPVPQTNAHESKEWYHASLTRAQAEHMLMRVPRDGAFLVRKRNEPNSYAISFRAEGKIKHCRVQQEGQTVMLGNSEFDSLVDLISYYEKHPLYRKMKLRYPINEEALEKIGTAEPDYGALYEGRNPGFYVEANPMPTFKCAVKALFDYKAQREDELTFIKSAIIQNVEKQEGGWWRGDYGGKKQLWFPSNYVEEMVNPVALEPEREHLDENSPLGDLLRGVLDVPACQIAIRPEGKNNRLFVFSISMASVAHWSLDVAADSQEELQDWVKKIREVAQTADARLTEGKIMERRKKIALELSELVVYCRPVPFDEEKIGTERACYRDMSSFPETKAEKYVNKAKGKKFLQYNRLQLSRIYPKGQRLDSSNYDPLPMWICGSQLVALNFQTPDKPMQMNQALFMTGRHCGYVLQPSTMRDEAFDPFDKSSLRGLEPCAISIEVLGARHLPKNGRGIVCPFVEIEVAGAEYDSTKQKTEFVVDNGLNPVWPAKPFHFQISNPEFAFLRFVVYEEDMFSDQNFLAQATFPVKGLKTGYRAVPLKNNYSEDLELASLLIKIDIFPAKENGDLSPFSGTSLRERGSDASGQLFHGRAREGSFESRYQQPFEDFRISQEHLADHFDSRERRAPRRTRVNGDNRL
# T9: TNS3 SH2 domain (human, UniProt Q68CZ2 1172-1282)
# T9 construct: TNS3, human; source: bacterial expression, purified
# T9 sequence (looked up): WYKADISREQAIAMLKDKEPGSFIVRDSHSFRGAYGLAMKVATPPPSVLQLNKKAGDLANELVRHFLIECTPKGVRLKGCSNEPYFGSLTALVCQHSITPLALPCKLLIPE
# T10: VAV2 SH2 domain (human, UniProt P52735 673-767)
# T10 construct: VAV2, human; source: bacterial expression, purified
# T10 sequence (looked up): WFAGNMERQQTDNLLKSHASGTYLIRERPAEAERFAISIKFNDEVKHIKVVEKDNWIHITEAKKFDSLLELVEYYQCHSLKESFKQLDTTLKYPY
# B1: ErbB3pY1197 phosphopeptide, rhodamine-labelled (peptide)
# peptide: Rhodamine-EDEE[pY]EYMNRRRD
# modifications: reading uncertain
# notes: human ErbB3 around Tyr1197; also called labeled peptide 4; source: synthetic peptide
# B2: ErbB3pY1222 phosphopeptide, rhodamine-labelled (peptide)
# peptide: rhodamine-EELG[pY]EYMDVGSD
# modifications: reading uncertain
# notes: human ErbB3 around Tyr1222; also called labeled peptide 5; source: synthetic peptide
# Key:
# Conditions in all cases: both partners purified
# BLNK SH2 domain = target: T1, BLNK SH2 domain; assay: peptide or protein array; SH2/PTB proteins spotted on aldehyde slides, rhodamine peptide titrated in buffer B (20 mM HEPES, 100 mM KCl, 0.1% Tween-20, 5 mM DTT, pH 7.8), 1 h at room temperature; replicate assays
# SUPT6H SH2 domain = target: T11, SUPT6H SH2 domain (human, UniProt Q7KZ85 1325-1431); assay: as above
# T11 construct: SUPT6H, human; source: bacterial expression, purified
# T11 sequence (Q7KZ85 1325-1431): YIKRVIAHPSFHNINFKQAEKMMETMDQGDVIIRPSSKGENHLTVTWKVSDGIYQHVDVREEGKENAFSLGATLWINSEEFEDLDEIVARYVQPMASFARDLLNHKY
# GRAP2 SH2 domain = target: T2, GRAP2 SH2 domain; assay: as above
# SHC1 domain construct = target: T3, SHC1 domain construct; assay: as above
# YES1 SH2 domain = target: T12, YES1 SH2 domain (human, UniProt P07947 158-255); assay: as above
# T12 construct: YES1, human; source: bacterial expression, purified
# T12 sequence (P07947 158-255): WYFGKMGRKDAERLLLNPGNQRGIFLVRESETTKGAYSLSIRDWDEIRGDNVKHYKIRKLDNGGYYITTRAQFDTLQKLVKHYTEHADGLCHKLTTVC
# SYK tandem SH2 domains = SYK tandem SH2 domains (human); assay: as above
# ABL2 SH2 domain = target: T4, ABL2 SH2 domain; assay: as above
# SH2D3A SH2 domain = target: T13, SH2D3A SH2 domain (human, UniProt Q9BRG2 15-114); assay: as above
# T13 construct: SH2D3A, human; source: bacterial expression, purified
# T13 sequence (Q9BRG2 15-114): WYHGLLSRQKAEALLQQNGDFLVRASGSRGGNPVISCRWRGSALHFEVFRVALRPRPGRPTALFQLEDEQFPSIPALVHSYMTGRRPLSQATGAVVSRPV
# BLK SH2 domain = target: T14, BLK SH2 domain (human, UniProt P51451 124-220); assay: as above
# T14 construct: BLK, human; source: bacterial expression, purified
# T14 sequence (P51451 124-220): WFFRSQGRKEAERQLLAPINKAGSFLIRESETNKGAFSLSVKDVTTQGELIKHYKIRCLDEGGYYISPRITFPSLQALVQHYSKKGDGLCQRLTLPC
# ITK SH2 domain = target: T5, ITK SH2 domain; assay: as above
# SHF SH2 domain = target: T6, SHF SH2 domain; assay: as above
# STAP1 SH2 domain = target: T7, STAP1 SH2 domain; assay: as above
# LCK SH2 domain = target: T15, LCK SH2 domain (human, UniProt P06239 127-224); assay: as above
# T15 construct: LCK, human; source: bacterial expression, purified
# T15 sequence (P06239 127-224): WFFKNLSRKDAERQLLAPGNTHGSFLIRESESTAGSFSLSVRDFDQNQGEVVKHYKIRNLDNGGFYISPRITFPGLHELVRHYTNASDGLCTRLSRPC
# [1] = target: T8, PLCG1 C-terminal SH2 domain; assay: SPR; Biacore 3000; 6X His SH2 proteins held on a Ni-NTA chip, dye-free peptides in solution, equilibrium
# TNS3 SH2 domain = target: T9, TNS3 SH2 domain; assay: as above
# [2] = target: T16, PIK3R1 N-terminal SH2 domain (human); assay: as above
# T16 construct: PIK3R1, human; source: bacterial expression, purified
# [3] = target: T17, PIK3R3 C-terminal SH2 domain (human); assay: as above
# T17 construct: PIK3R3, human; source: bacterial expression, purified
# [4] = target: T18, SYK C-terminal SH2 domain (human); assay: as above
# T18 construct: SYK, human; source: bacterial expression, purified
# VAV2 SH2 domain = target: T10, VAV2 SH2 domain; assay: as above
# GRB7 SH2 domain = target: T19, GRB7 SH2 domain (human, UniProt Q14451 431-527); assay: fluorescence polarisation; saturation binding in solution: rhodamine peptide fixed at 10 nM, protein titrated 0.002-10 uM, 20 min at room temperature; assay buffer 20 mM HEPES, 100 mM KCl, 0.1% Tween-20, 5 mM DTT, pH 7.8; apparent KD
# T19 construct: GRB7, human; source: bacterial expression, purified
# T19 sequence (Q14451 431-527): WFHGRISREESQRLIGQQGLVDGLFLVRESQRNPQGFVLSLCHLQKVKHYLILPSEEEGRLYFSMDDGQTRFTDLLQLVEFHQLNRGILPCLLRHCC
# PTK6 SH2 domain = target: T20, PTK6 SH2 domain (human, UniProt Q13882 78-170); assay: as above
# T20 construct: PTK6, human; source: bacterial expression, purified
# T20 sequence (Q13882 78-170): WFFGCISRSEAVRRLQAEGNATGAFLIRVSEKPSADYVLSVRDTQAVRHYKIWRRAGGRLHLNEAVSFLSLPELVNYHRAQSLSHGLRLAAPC
# SRC SH2 domain = target: T21, SRC SH2 domain (human, UniProt P12931-1 151-248); assay: as above
# T21 construct: SRC, human; also called c-Src; source: bacterial expression, purified
binder,measurement,setting,value
"Rhodamine-PLQR[pY]SEDPTVPD (reading uncertain) [ErbB2 pY1112 phosphopeptide, rhodamine-labelled, for protein microarrays]",Kd,BLNK SH2 domain,4900 nM
same,Kd,SUPT6H SH2 domain,1040 nM
same,Kd,GRAP2 SH2 domain,7150 nM
same,Kd,SHC1 domain construct,1260 nM and 3060 nM
same,Kd,YES1 SH2 domain,720 nM and 1600 nM
same,Kd,SYK tandem SH2 domains,893 nM and 803 nM
same,Kd,ABL2 SH2 domain,1840 nM
same,Kd,SH2D3A SH2 domain,26600 nM
same,Kd,BLK SH2 domain,3220 nM and 1170 nM and 2070 nM
same,Kd,ITK SH2 domain,52900 nM
same,Kd,SHF SH2 domain,2970 nM
same,Kd,STAP1 SH2 domain,50 nM
same,Kd,LCK SH2 domain,10300 nM and 8930 nM
"PDPL[pY]EVMLKCW [MET pY1313 phosphopeptide, dye-free]",Kd,[1],486 nM
same,Kd,TNS3 SH2 domain,132 nM
same,Kd,[2],53 nM
same,Kd,[3],56 nM
same,Kd,[4],1660 nM
same,Kd,VAV2 SH2 domain,2510 nM
B1,Kd,GRB7 SH2 domain,130 nM
same,Kd,PTK6 SH2 domain,5790 nM
B2,Kd,SRC SH2 domain,2330 nM
